These results are taken from US20260250381A1.

Experiment [1] addresses T1, human TREM2 (human) (UniProt Q9NZC2).
T1 sequence (looked up): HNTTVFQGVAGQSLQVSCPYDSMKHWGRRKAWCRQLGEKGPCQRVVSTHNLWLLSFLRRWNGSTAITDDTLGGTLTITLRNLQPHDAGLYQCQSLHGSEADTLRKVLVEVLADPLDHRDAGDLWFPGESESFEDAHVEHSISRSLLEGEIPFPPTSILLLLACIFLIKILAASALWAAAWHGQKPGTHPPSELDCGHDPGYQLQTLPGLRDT
Briefly: 2nd screen, 2 nM Ab.

In experiment [2] the target is T1, human TREM2 (human). In words: 1st screen, 10 nM Ab.
For experiment [3], the target named is T1, human TREM2 (human). Briefly: 2nd screen, 10 nM Ab.

B1: 6E7 variant V73 (antibody, V domains shown)
VH: EVQLVQSGAEVKKPGESLKISCKGSGYSFGSYWIAWVRQMPGKGLEWMGIIYPGDSDTRYSPGFQGQVTISADKSISTAYLQWSSLKASDTAMYFCARGRTFYYDSSDYFDYWGQGTLVTVSS
VL: DIQMTQSPSSVSASVGDRVTITCRASQGISSWLAWYQQKPGKAPKLLIYAASSRQNGVPSRFSGSGSGTDFTLTISSLQPEDFATYFCQQADSYPRTFGQGTKLEIK
In the case of B1, the Binding Signal (fold over 6E7 parental antibody) with human TREM2 (human) [1] is 4.17 fold; in the experiment with human TREM2 (human) [2], 5.12 fold; in the experiment with human TREM2 (human) [3], 5.44 fold.

B2: 6E7 variant V76 (antibody, V domains shown)
VH: EVQLVQSGAEVKKPGESLKISCKGSGYSFGSYWIAWVRQMPGKGLEWMGIIYPGDSDTRYSPEFQGQVTISADKSISTAYLQWSSLKASDTAMYFCARQRTFYYDSSDYSDYWGQGTLVTVSS
VL: DIQMTQSPSSVSASVGDRVTITCRASQGISSWLAWYQQKPGKAPKLLIYAASSLQKGVPSRFSGSGSGRDFTLTISSLQPEDFATYFCQQADSFPRTFGQGTKLEIK
Take B2: the Binding Signal (fold over 6E7 parental antibody) with human TREM2 (human) [1] came out at 4.34 fold; with human TREM2 (human) [2] it was 4.57 fold; with human TREM2 (human) [3] it was 4.93 fold.

B3: 6E7 variant V3 (antibody, V domains shown)
VH: EVQLVQSGAEVKKPGESLKISCKGSGYSFASYWIAWVRQMPGKGLEWMGIIYPGDSDTRYSPSFQDQVTISADKSISTAYLQWSSLKASDTAMYFCARGRTFYYDSSDYFDYWGQGTLVTVSS
VL: DIQMTQSPSSVSASVGDRVTITCRASQGISSWLAWYQQKPGKAPKLLIYAASSRQNGVPSRFSGSGSGTDFTLTISSLQPEDFATYFCQQADRFPRTFGQGTKLEIK
As for B3, the Binding Signal (fold over 6E7 parental antibody) with human TREM2 (human) [1] came to 1.95 fold; with human TREM2 (human) [2], 1.97 fold; with human TREM2 (human) [3], 2.24 fold.

B4: 6E7 variant V77 (antibody, V domains shown)
VH: EVQLVQSGAEVKKPGESLKISCKGSGYSFTSYWIAWVRQMPGKGLEWMGIIYPGDSDTRYSPSFQGQVTISADKSISTAYLQWSSLKASDTAMYFCARQRTFYYDSSDYFDYWGQGTLVTVSS
VL: DIQMTQSPSSVSASVGDRVTITCRASQGISSWLAWYQQKPGKAPKLLIYAASSRQNGVPSRFSGSGSGTDFTLTISSLQPEDFATYFCQQADSFPRTFGQGTKLEIK
Regarding B4, the Binding Signal (fold over 6E7 parental antibody) with human TREM2 (human) [1] turned out to be 0.83 fold; with human TREM2 (human) [2], 1.43 fold; in the experiment with human TREM2 (human) [3], 1.38 fold.

B5: 6E7 variant V89 (antibody, V domains shown)
VH: EVQLVQSGAEVKKPGESLKISCKGSGYSFTSYWIAWVRQMPGKGLEWMGIIYPGDSDTRYSPSFQGQVTISADKSISTAYLQWSSLKASDTAMYFCARQRTFYYDSSDYFDYWGQGTLVTVSS
VL: DIQMTQSPSSVSASVGDRVTITCRASQGISSWLAWYQQKPGKAPKLLIYAASSLQNGVPSRFSGSGSGTDFTLTISSLQPEDFATYFCQQADSHPRTFGQGTKLEIK
Regarding B5, the Binding Signal (fold over 6E7 parental antibody) with human TREM2 (human) [1] was 0.94 fold; with human TREM2 (human) [2] it was 1.33 fold; in the experiment with human TREM2 (human) [3], 1.46 fold.

B6: 6E7 variant V75 (antibody, V domains shown)
VH: EVQLVQSGAEVKKPGESLKISCKGSGYSFTSYWIAWVRQMPGKGLEWMGIIYPGDSDTRYSPSFQGQVTISADKSISTAYLQWSSLKASDTAMYFCARGRTFYYDSSDYFDYWGQGTLVTVSS
VL: DIQMTQSPSSVSASVGDRVTITCRASQGISSWLAWYQQKPGKAPKLLIYAASSLQAGVPSRFSGSGSGTDFTLTISSLQPEDFATYFCQQADSYPRTFGQGTKLEIK
B6: the results for the Binding Signal (fold over 6E7 parental antibody) in the experiment with human TREM2 (human) [1], with human TREM2 (human) [2] and with human TREM2 (human) [3] were 3.74 fold, 4.64 fold and 4.52 fold, respectively.

B7: 6E7 variant V88 (antibody, V domains shown)
VH: EVQLVQSGAEVKKPGESLKISCKGSGYSFGSYWIAWVRQMPGKGLEWMGIIYPGDSDTRYSPSFQGQVTISADKSISTAYLQWSSLKASDTAMYFCARQRTFYYDSSDYFDYWGQGTLVTVSS
VL: DIQMTQSPSSVSASVGDRVTITCRASQGISSWLAWYQQKPGKAPKLLIYAASRLQRGVPSRFSGSGSGTDFTLTISSLQPEDFATYFCQQADSSPRTFGQGTKLEIK
Take B7: the Binding Signal (fold over 6E7 parental antibody) amounted to 5.57 fold with human TREM2 (human) [1], 4.92 fold with human TREM2 (human) [2] and 5.3 fold with human TREM2 (human) [3].

B8: 6E7 variant V5 (antibody, V domains shown)
VH: EVQLVQSGAEVKKPGESLKISCKGSGYSFTSYWIAWVRQMPGKGLEWMGTIYPGDSDTRYSPSFQGQVTISADKSISTAYLQWSSLKASDTAMYFCARQRTFYYDSSDYFDYWGQGTLVTVSS
VL: DIQMTQSPSSVSASVGDRVTITCRASQGISSWLAWYQQKPGKAPKLLIYAASSLQNGVPSRFSGSGSGTDFTLTISSLQPEDFATYFCQQADSHPRTFGQGTKLEIK
For the molecule B8, the Binding Signal (fold over 6E7 parental antibody) with human TREM2 (human) [1] was determined as 1.25 fold; in the experiment with human TREM2 (human) [2], 2.73 fold; in the experiment with human TREM2 (human) [3], 2.84 fold.

B9: 6E7 variant V87 (antibody, V domains shown)
VH: EVQLVQSGAEVKKPGESLKISCKGSGYSFRSYWIAWVRQMPGKGLEWMGIIYPGDSDVRYSPDFQGQVTISADKSISTAYLQWSSLKASDTAMYFCARSRTFYYDSSDYFDYWGQGTLVTVSS
VL: DIQMTQSPSSVSASVGDRVTITCRASQGISSWLAWYQQKPGKAPKLLIYAASSLQWGVPSRFSGSGSGTDFTLTISSLQPEDFATYFCQQADSFPRTFGQGTKLEIK
In the case of B9, the values for the Binding Signal (fold over 6E7 parental antibody) with human TREM2 (human) [1], in the experiment with human TREM2 (human) [2] and in the experiment with human TREM2 (human) [3] were 4.86 fold, 3.84 fold and 3.93 fold, respectively.

B10: 6E7 variant V2 (antibody, V domains shown)
VH: EVQLVQSGAEVKKPGESLKISCKGSGSSFTSYWIAWVRQMPGKGLEWMGIIYPGDGDTRYSPSFQGQVTISADKSISTAYLQWSSLKASDTAMYFCARSRTFYYDSSDYFDYWGQGTLVTVSS
VL: DIQMTQSPSSVSASVGDRVTITCRASQGISSWLAWYQQKPGKAPKLLIYAASSRQNGVPSRFSGSGSGTDFTLTISSLQPEDFATYFCQQADRFPRTFGQGTKLEIK
As for B10, the figures for the Binding Signal (fold over 6E7 parental antibody) with human TREM2 (human) [1], with human TREM2 (human) [2] and with human TREM2 (human) [3] were 2.23 fold, 2.55 fold and 2.9 fold, respectively.

B11: 6E7 variant V74 (antibody, V domains shown)
VH: EVQLVQSGAEVKKPGESLKISCKGSGYSFASYWIAWVRQMPGKGLEWMGIIYPGDSDVRYSPSFQGQVTISADKSISTAYLQWSSLKASDTAMYFCARGRTFYYDSSDYFDYWGQGTLVTVSS
VL: DIQMTQSPSSVSASVGDRVTITCRASQGISSWLAWYQQKPGKAPKLLIYAASSLQLGVPSRFSGSGSGTDFTLTISSLQPEDFATYFCQQADSFPRTFGQGTKLEIK
As to B11, the Binding Signal (fold over 6E7 parental antibody) was 2.54 fold with human TREM2 (human) [1], 3.94 fold with human TREM2 (human) [2] and 4.01 fold with human TREM2 (human) [3].

B12: 6E7 variant V13 (antibody, V domains shown)
VH: EVQLVQSGAEVKKPGESLKISCKGSGYSFGSYWIAWVRQMPGKGLEWMGIIYPGDSDTRYSASFQGQVTISADKSISTAYLQWSSLKASDTAMYFCARGRTFYYDSSDYFDYWGQGTLVTVSS
VL: DIQMTQSPSSVSASVGDRVTITCRASQGISSWLAWYQQKPGKAPKLLIYAASSLQGGVPSRFSGSGSGTDFTLTISSLQPEDFATYFCQQADSMPRTFGQGTKLEIK
For the molecule B12, the Binding Signal (fold over 6E7 parental antibody) in the experiment with human TREM2 (human) [1] is 1.15 fold; in the experiment with human TREM2 (human) [2], 1.31 fold; with human TREM2 (human) [3] it was 1.35 fold.

B13: 6E7 variant V85 (antibody, V domains shown)
VH: EVQLVQSGAEVKKPGESLKISCKGSGYSFRSYWIAWVRQMPGKGLEWMGTIYPGDSDTRYSPSFQGQVTISADKSISTAYLQWSSLKASDTAMYFCARSRTFYYDSSDYFDYWGQGTLVTVSS
VL: DIQMTQSPSSVSASVGDRVTITCRASQGISSWLAWYQQKPGKAPKLLIYAASSRQNGVPSRFSGSGSGTDFTLTISSLQPEDFATYFCQQADSFPRTFGQGTKLEIK
As for B13, the Binding Signal (fold over 6E7 parental antibody) was 5.41 fold in the experiment with human TREM2 (human) [1], 5.41 fold with human TREM2 (human) [2] and 5.37 fold with human TREM2 (human) [3].

B14: 6E7 variant V86 (antibody, V domains shown)
VH: EVQLVQSGAEVKKPGESLKISCKGSGYSFGSYWLAWVRQMPGKGLEWMGIIYPGDSDTRYSPSFEGQVTISADKSISTAYLQWSSLKASDTAMYFCARSRTFYYDSSDYFDYWGQGTLVTVSS
VL: DIQMTQSPSSVSASVGDRVTITCRASQGISSWLAWYQQKPGKAPKLLIYAASSRQNGVPSRFSGSGSGTDFTLTISSLQPEDFATYFCQQADSFPRTFGQGTKLEIK
Consider B14, for which the Binding Signal (fold over 6E7 parental antibody) with human TREM2 (human) [1] was 5.17 fold; in the experiment with human TREM2 (human) [2], 4.8 fold; with human TREM2 (human) [3] it was 5.02 fold.

B15: 6E7 variant V4 (antibody, V domains shown)
VH: EVQLVQSGAEVKKPGESLKISCKGSGYSFGSYWIAWVRQMPGKGLEWMGIIYPGDSDTRVSPSFQGQVTISADKSISTAYLQWSSLKASDTAMYFCARSRTFYYDSSDYFDYWGQGTLVTVSS
VL: DIQMTQSPSSVSASVGDRVTITCRASQGISSWLAWYQQKPGKAPKLLIYAASRLQNGVPSRFSGSGSGTDFTLTISSLQPEDFATYFCQQADSYPRTFGQGTKLEIK
Turning to B15, the Binding Signal (fold over 6E7 parental antibody) in the experiment with human TREM2 (human) [1] is 5.88 fold; with human TREM2 (human) [2], 6 fold; with human TREM2 (human) [3], 5.51 fold.

B16: 6E7 variant V84 (antibody, V domains shown)
VH: EVQLVQSGAEVKKPGESLKISCKGSGYGFTSYWIAWVRQMPGKGLEWMGIIYPGDSDTRYSPSFQGQVTISADKSISTAYLQWSSLKASDTAMYFCARQRTFYYDSSDYSDYWGQGTLVTVSS
VL: DIQMTQSPSSVSASVGDRVTITCRASQGISSWLAWYQQKPGKAPKLLIYGASSLQNGVPSRFSGSGSGTDFTLTISSLQPEDFATYFCQQADSFPRTFGQGTKLEIK
With B16, the values for the Binding Signal (fold over 6E7 parental antibody) in the experiment with human TREM2 (human) [1], with human TREM2 (human) [2] and with human TREM2 (human) [3] were 1.45 fold, 1.44 fold and 1.62 fold, respectively.
